Assays:
elastase = assay: Elastase inhibition assay (fibroblast lysate, STANA substrate); assay type: biochemical, human
Experimental: The RSPP test materials were also tested to determine their effect(s) on elastase activity. In these experiments, human dermal fibroblasts were used as a source of the elastase enzyme. This enzyme was partially purified from the fibroblasts by lysing the cells in an elastase buffer and retaining the soluble portion of the lysate. Portions of this fibroblast lysate were then incubated with test materials and a synthetic elastase substrate, Suc-(Ala3)-p-Nitroaniline (STANA). Elastase acts upon this substrate to release p-nitroaniline, which can be detected spectrophotometrically by measuring the absorbance at a wavelength of 405 nm. An inhibition of the elastase enzyme is noted by a decrease in the amount of released p-nitroaniline when compared to uninhibited enzyme.
Cells were expanded and passed until a sufficient number of cells had been grown (not exceeding 10 passages). When a sufficient number of cells had been grown, the fibroblast lysate containing the elastase enzyme was prepared as follows:
The fibroblasts were washed twice with 15 ml of phosphate buffered saline with each wash removed via aspiration. Ice cold PBS (7.5 ml) was then added to the flask and the cells were detached with a cell scraper. The detached cells/PBS was transferred to a 15 ml centrifuge tube on ice. The flask was rinsed again with 7.5 ml of PBS, which was also transferred to the 15 ml tube. […] The protein concentration of the fibroblast lysate was determined using the Pierce BCA Protein Assay kit (see below for details) and the fibroblast lysate was stored at −75° C. until used (for up to 1 year).
Upon determining the protein concentration of the lysate, a small sample was obtained and the elastase activity of the lysate was determined at 1×, 0.5× and 0.25× concentrations. The activity was determined for each of the different concentrations in exactly the same way that the uninhibited sample was treated in the elastase assay (see below). […] After 1.25 hours, the well plate was removed and read in a 96-well plate reader at 405 nm. The mean absorbances were plotted versus concentration. […]

[1] = tested on: cultured dermal fibroblasts; assay: UVB protection, follow-up MTT assay (pretreatment protocols); assay type: cell-based, human; settings: UVB control 79 ± 19
Experimental: (§1) Two sets of duplicate cells were prepared using the four treatment protocols outlined in Table 24. One set of cells was used for an MTT assay while the other set of cells was used to measure the formation of ROS using the fluorescent DCF dye indicator.
(§2) For this follow up study, the material was tested at concentrations of 0.14% and 0.014%. During the pretreatment phase, the test material was diluted in FGM (for treatments 1 and 2). […] For the MTT assay, cells that were not exposed to UVB or treated with test materials were used to represent 100% cell viability.

[2] = tested on: reactive oxygen species (ROS); assay: Fluorescent DCF dye assay after UVB; assay type: cell-based, human; settings: No UVB 0.031, UVB 0.057
Experimental: Therefore, the aim of the follow-up study, was to determine if treatment with the test material before or during UVB exposure provided any additional survival benefit(s). Four different treatment regiments were employed using different combinations of pretreatment with the test material prior to UVB exposure and treatment with the material during UVB exposure. Cell survival was again assessed via an MTT assay 48 hours after the UVB insult. In addition, this second study also incorporated the use of 2′,7′-dichloro-dihydrofluorescein diacetate (DCF), which is a relatively non-fluorescent dye that can be loaded into cells and becomes fluorescent upon exposure to the reactive oxygen species (ROS) generated during UVB exposure (Carini et al., Il Farmaco 55:526-534 [2000]; and Chan et al., J. Cell. Biochem., 90:327-338 [2003]). The diacetate form of the dye can freely traverse cell membranes, however once inside of the cell intracellular esterases will cleave off the acetate side groups trapping the DCF dye within the cell.
as §1, §2
One hour prior to UVB exposure, the cell culture media were removed and the wells were washed with PBS to remove any residual RSPP test material in the set of cells used for the DCF assay. A 20 mM stock of DCF prepared in DMSO was diluted to 10 μM using PBS and 100 μl of this solution were added to each well. The plate was then returned to the incubator for 1 hour, to allow sufficient time for the cells to take up and trap the dye. After the 1-hour incubation, the cells were washed with PBS to remove any unincorporated dye and then exposed to UVB using the protocol described above. Forty-eight hours later, the 96-well plate was read using a fluorometer set for an excitation wavelength of 485 nm and an emission wavelength of 518 nm. The duplicate set of wells run for the MTT assay served as non-dye loaded blanks to account for any background fluorescence due to the cells or the test material.
The mean fluorescence intensity was determined for each of the treatment groups (measured in relative fluorescence units or “RFU”).

[3] = tested on: cultured dermal fibroblasts; assay: UVB protection, initial MTT assay (material applied after UVB); settings: 0.14%, −UVB condition
Experimental: In these experiments, the test material was tested at six concentrations with two duplicate sets of cells prepared. […] Changes in cell viability were then determined 48 hours post material application via an MTT assay, as described above.
Fibroblasts were seeded into the individual wells of a 96 well plate in 100 μl FGM, and incubated overnight at 37±2° C. and 5±1% CO2. On the following day, the media were removed via aspiration to eliminate any non-adherent cells and replaced with 100 μl of fresh FGM. The cells were grown until confluent, with a media change every 48 to 72 hours.
An UVLM-26 lamp was used as the source of UVB light. UV light intensity was measured using a UVX radiometer coupled to a UVB sensor probe (UV Products) to determine the time required to deliver an approximate dose of 50 mj/cm^2. Prior to UVB exposure, the FGM was replaced with 100 μl PBS. After exposure, the PBS was removed and replaced with FGM supplemented with either the test materials, 20 μM Trolox, or left unsupplemented. A duplicate set of cells was also prepared and treated as described above, with the exception that they were not exposed to UVB light. […] The cells were allowed to incubate with the test materials for 48 hours, and then changes in cell viability were determined via an MTT assay. […]
After the 48-hour incubation, the cell culture medium was removed and the fibroblasts were washed with PBS to remove any remaining test material. […] The 96-well plate was then read at 540 nm using isopropyl alcohol as a blank.
The mean MTT absorbance value for the negative control cells (non-UVB exposed and non test material treated cells) was calculated and used to represent 100% value for cell number. The individual MTT values from the cells undergoing the various treatments was then divided by the mean value for the negative control cells and expressed as a percent, to determine the change in cell viability caused by each treatment. MTT scores for each treatment are expressed as means±the standard deviation of the mean.

[4] = T1 (24 hour pretreatment, absent during UVB, present 48 hours after) 0.014%
[5] = T1 (24 hour pretreatment, absent during UVB, present 48 hours after) 0.14%
[6] = T2 (24 hour pretreatment, present during UVB and 48 hours after) 0.014%
[7] = T2 (24 hour pretreatment, present during UVB and 48 hours after) 0.14%
[8] = T3 (present only 48 hours after UVB) 0.014%
[9] = T3 (present only 48 hours after UVB) 0.14%
[10] = T4 (no pretreatment, present during UVB and 48 hours after) 0.014%
[11] = T4 (no pretreatment, present during UVB and 48 hours after) 0.14%

B1: GC2596-26-E: collagen-like repeat sequence protein polymer, head-[(GAHGPAGPK)2(GAQGPAGPG)24(GAHGPAGPK)2]4-tail; SEQ ID NO:34 (Example 5) (protein)
chain: MDPVVLQRRDWENPGVTQLNRLAAHPPFASDPMGAHGPAGPKGAHGPAGPKGAQGPAGPGGAQGPAGPGGAQGPAGPGGAQGPAGPGGAQGPAGPGGAQGPAGPGGAQGPAGPGGAQGPAGPGGAQGPAGPGGAQGPAGPGGAQGPAGPGGAQGPAGPGGAQGPAGPGGAQGPAGPGGAQGPAGPGGAQGPAGPGGAQGPAGPGGAQGPAGPGGAQGPAGPGGAQGPAGPGGAQGPAGPGGAQGPAGPGGAQGPAGPGGAQGPAGPGGAHGPAGPKGAHGPAGPKGAHGPAGPKGAHGPAGPKGAQGPAGPGGAQGPAGPGGAQGPAGPGGAQGPAGPGGAQGPAGPGGAQGPAGPGGAQGPAGPGGAQGPAGPGGAQGPAGPGGAQGPAGPGGAQGPAGPGGAQGPAGPGGAQGPAGPGGAQGPAGPGGAQGPAGPGGAQGPAGPGGAQGPAGPGGAQGPAGPGGAQGPAGPGGAQGPAGPGGAQGPAGPGGAQGPAGPGGAQGPAGPGGAQGPAGPGGAHGPAGPKGAHGPAGPKGAHGPAGPKGAHGPAGPKGAQGPAGPGGAQGPAGPGGAQGPAGPGGAQGPAGPGGAQGPAGPGGAQGPAGPGGAQGPAGPGGAQGPAGPGGAQGPAGPGGAQGPAGPGGAQGPAGPGGAQGPAGPGGAQGPAGPGGAQGPAGPGGAQGPAGPGGAQGPAGPGGAQGPAGPGGAQGPAGPGGAQGPAGPGGAQGPAGPGGAQGPAGPGGAQGPAGPGGAQGPAGPGGAQGPAGPGGAHGPAGPKGAHGPAGPKGAHGPAGPKGAHGPAGPKGAQGPAGPGGAQGPAGPGGAQGPAGPGGAQGPAGPGGAQGPAGPGGAQGPAGPGGAQGPAGPGGAQGPAGPGGAQGPAGPGGAQGPAGPGGAQGPAGPGGAQGPAGPGGAQGPAGPGGAQGPAGPGGAQGPAGPGGAQGPAGPGGAQGPAGPGGAQGPAGPGGAQGPAGPGGAQGPAGPGGAQGPAGPGGAQGPAGPGGAQGPAGPGGAQGPAGPGGAHGPAGPKGAHGPAGPKMDPGRYQLSAGRYHYQLVWCQK
modifications: silk-elastin repeat sequence protein copolymer
Percent Inhibition (elastase; 0.1%): −13%
Percent Inhibition (elastase; 0.5%): −20%
Percent Inhibition (elastase; 1%): −5%

B2: GC2596-26-D: SELP47K modified with two units of ALSYP (SEQ ID NO:36) peptides in each SELP47K unit; SEQ ID NO:32 (Example 4) (protein)
chain: MDPVVLQRRDWENPGVTQLNRLAAHPPFASDPMGAGAGSGAGAGSALSYPGVGVPGVGVPGVGVPGVGVPGKGVPGVGVPGVGVPGVGVPALSYPGAGAGSGAGAGSGAGAGSGAGAGSALSYPGVGVPGVGVPGVGVPGVGVPGKGVPGVGVPGVGVPGVGVPALSYPGAGAGSGAGAGSGAGAGSGAGAGSALSYPGVGVPGVGVPGVGVPGVGVPGKGVPGVGVPGVGVPGVGVPALSYPGAGAGSGAGAGSGAGAGSGAGAGSALSYPGVGVPGVGVPGVGVPGVGVPGKGVPGVGVPGVGVPGVGVPALSYPGAGAGSGAGAGSGAGAGSGAGAGSALSYPGVGVPGVGVPGVGVPGVGVPGKGVPGVGVPGVGVPGVGVPALSYPGAGAGSGAGAGSGAGAGSGAGAGSALSYPGVGVPGVGVPGVGVPGVGVPGKGVPGVGVPGVGVPGVGVPALSYPGAGAGSGAGAGSGAGAGSGAGAGSALSYPGVGVPGVGVPGVGVPGVGVPGKGVPGVGVPGVGVPGVGVPALSYPGAGAGSGAGAGSGAGAGSGAGAGSALSYPGVGVPGVGVPGVGVPGVGVPGKGVPGVGVPGVGVPGVGVPALSYPGAGAGSGAGAGSGAGAGSGAGAGSALSYPGVGVPGVGVPGVGVPGVGVPGKGVPGVGVPGVGVPGVGVPALSYPGAGAGSGAGAGSGAGAGSGAGAGSALSYPGVGVPGVGVPGVGVPGVGVPGKGVPGVGVPGVGVPGVGVPALSYPGAGAGSGAGAGSGAGAGSGAGAGSALSYPGVGVPGVGVPGVGVPGVGVPGKGVPGVGVPGVGVPGVGVPALSYPGAGAGSGAGAGSGAGAGSGAGAGSALSYPGVGVPGVGVPGVGVPGVGVPGKGVPGVGVPGVGVPGVGVPALSYPGAGAGSGAGAGSGAGAGSGAGAGSALSYPGVGVPGVGVPGVGVPGVGVPGKGVPGVGVPGVGVPGVGVPALSYPGAGAGSGAGAGSGAGAMDPGRYQDLRSHHHHHH
modifications: SELP 47K-P4
Percent Viability [1, 4]: 85 ± 7%
Percent Viability [1, 5]: 122 ± 20%
Percent Viability [1, 6]: 78 ± 4%
Percent Viability [1, 7]: 126 ± 25%
Percent Viability [1, 8]: 88%
Percent Viability [1, 9]: 97 ± 14%
Percent Viability ([1]; T3 (present only 48 hours after UVB) 0.14%, listed as 2596-26-D): ~100%
Percent Viability [1, 10]: 86 ± 6%
Percent Viability [1, 11]: 121 ± 19%
RFU/Viability [2, 4]: 0.038
RFU/Viability [2, 5]: 0.038
RFU/Viability [2, 6]: 0.035
RFU/Viability [2, 7]: 0.032
RFU/Viability [2, 8]: 0.053
RFU/Viability [2, 9]: 0.039
RFU/Viability [2, 10]: 0.052
RFU/Viability [2, 11]: 0.026
number of viable cells greater than −UVB untreated cells [3]: 54%
